Where a chain is given by its changes, count along the chain named.
What was measured:
Experiment in all cases: ITC
[1] = molecular target: T1, WW1 domain (residues 16-50) of human WWOX (human, UniProt Q9NZC7 16-50)
T1 chain (looked up): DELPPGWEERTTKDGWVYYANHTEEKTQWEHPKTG

[2] = molecular target: engineered WW2_RW domain of WWOX (E66R/Y85W double-mutant of WW2 domain) (human, UniProt Q9NZC7 57-91, E66R | Y85W)
[3] = molecular target: T2, WW1-WW2 tandem domains (residues 16-91) of human WWOX (human, UniProt Q9NZC7 16-91)
T2 sequence (looked up): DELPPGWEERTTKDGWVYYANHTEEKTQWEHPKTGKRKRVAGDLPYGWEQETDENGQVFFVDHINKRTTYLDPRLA

[4] = molecular target: T3, engineered WW1-WW2rw tandem domains of WWOX (human, UniProt Q9NZC7 16-91, E66R | Y85W)
T3 sequence (looked up): T2 sequence (looked up) with E51R, Y70W

Sequence of engineered WW2_RW domain of WWOX (E66R/Y85W double-mutant of WW2 domain) (Q9NZC7 57-91 E66R/Y85W): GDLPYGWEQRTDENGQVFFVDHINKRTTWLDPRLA

Q: What does the source list for PGTPPPPYTVAP [WBP1_PY2 peptide (12-mer spanning the PY2 PPXY motif of human WBP1)]?
A: Kd [1]: 366 µM; dH [1]: -16.1 kcal/mol; Kd [2]: 123 µM; dH [2]: -12.1 kcal/mol; Kd [3]: 132 µM; dH [3]: -9.85 kcal/mol; stoichiometry N [3]: 0.99; Kd [4]: 101 µM; dH [4]: -10.1 kcal/mol; stoichiometry N [4]: 2.02

Q: Which Kd [1] does the source give for STFKPPAYEDVV [WBP1_PY1 peptide (12-mer spanning the PY1 PPXY motif of human WBP1)] here?
A: The Kd was > 1000 µM.

Q: And the Kd [2]?
A: The Kd was 80 µM.

Q: And the dH [2]?
A: The dH was -5.59 kcal/mol.

Q: What about the Kd [3] of the same binder?
A: The Kd was > 1000 µM.

Q: And the Kd [4]?
A: Its Kd is 103 µM.

Q: What about the dH [4] of the same binder?
A: Its dH is -8.66 kcal/mol.

Q: What about the “stoichiometry N” value [4] of the same binder?
A: The value was 1.07.

Q: With VQPPPPPYPGPM [WBP2_PY2 peptide (12-mer spanning the PY2 PPXY motif of human WBP2)] as the binder, how does the Kd [1] read?
A: Its Kd is > 1000 µM.

Q: And the Kd [2]?
A: The Kd was 69 µM.

Q: And the dH [2]?
A: The dH was -8.44 kcal/mol.

Q: And the Kd [3]?
A: Its Kd is 326 µM.

Q: And the dH [3]?
A: The dH was -3.36 kcal/mol.

Q: And the “stoichiometry N” value [3]?
A: Its value is 1.03.

Q: And the Kd [4]?
A: Its Kd is 86 µM.

Q: What about the dH [4] of the same binder?
A: Its dH is -11.5 kcal/mol.

Q: What about the “stoichiometry N” value [4] of the same binder?
A: The value was 1.02.

From publication PMC3412936 (Journal of molecular biology, 2012)
